Measured values taken from article PMC9237108, “The Vibrio vulnificus stressosome is an oxygen-sensor involved in regulating iron metabolism” (Communications Biology, 2022).

B1: VvRsbS, recombinant, untagged, co-expressed with VvRsbR (natural protein, Vibrio vulnificus CMCP6, UniProt A0A3Q0KX63 1-117, looked up)
chain: MTMQSAISISKLQDVLIASVQVDLTESTLRDFSLDLLDAVKSTRAKGVMIELSGVKTLDGESMHRLLDVVKTVEVMGRRCLLVGLRPGVVIGLMDIGIDLASTLCVADLEQGFLYLE
notes: VvRsbS of Vibrio vulnificus CMCP6, locus VV2_0074; STAS domain made up of 115 residues; also called VvRsbS2 (dimer)

Legend:
[1] = target: the molecule itself; test: cryo-EM structure; purified, oxidized VvRsbR:VvRsbS complex (co-expressed in E. coli) at 0.3 mg/mL; single particle reconstructions in C1 and D2; homology models fitted into the map
[2] = target: B1; test: quantification of fluorescently stained SDS-PAGE bands of the purified complex; purified VvRsbR:VvRsbS complex separated by SDS PAGE, stained with Krypton, Typhoon scanner, bands quantified with ImageQuant; details: both partners purified

Row | Binder | stoichiometry N [1] | stoichiometry N [2]
1 | B1 | 2 | 
2 | VvRsbR, recombinant, untagged, co-expressed with VvRsbS (natural protein, Vibrio vulnificus CMCP6, UniProt A0A3Q0KX46 1-306, looked up, VvRsbR of Vibrio vulnificus CMCP6, locus VV2_0073; full-length gene amplified from genomic DNA, expressed untagged from pJPF012; Carries a heme in its N-terminal globin coupled sensor domain; In PDB 7O01 the linker helix was modelled as poly-alanine; also called VvRsbR2 (dimer)) MSLGSVLNKVEDADELLKLHDLTEADLALIRKFGQIMVPKLDEYVKHFYDWLRNTPEYEQYFGDAQKLQRVQDSQVRYWKTFFDARIDSAYLKERRDVGEIHARVGLPLPTYFAGMNISMVIFTKRMYDGSLYSDEYSSLVTAFTKLLHLDTTIVVDTYSRLINKRISEQSEALLAMSTPVTMIWQDILMLPIVGIIDSKRAQDIMSAVLNKISENRAKIFIMDISGVAVVDTAVANHFIKITKATKLMGCDCLVSGVSPSIARTMVQLGINVGEVRTNATLRDALENAFKIVGLTVSGLKHFPHE | 2 | 2.4 VvRsbR:VvRsbS
